T1: TbrCan2 E341A (Thermoanaerobacter brockii subsp. …, UniProt E8URK0 1-437, E341A)
T1 sequence: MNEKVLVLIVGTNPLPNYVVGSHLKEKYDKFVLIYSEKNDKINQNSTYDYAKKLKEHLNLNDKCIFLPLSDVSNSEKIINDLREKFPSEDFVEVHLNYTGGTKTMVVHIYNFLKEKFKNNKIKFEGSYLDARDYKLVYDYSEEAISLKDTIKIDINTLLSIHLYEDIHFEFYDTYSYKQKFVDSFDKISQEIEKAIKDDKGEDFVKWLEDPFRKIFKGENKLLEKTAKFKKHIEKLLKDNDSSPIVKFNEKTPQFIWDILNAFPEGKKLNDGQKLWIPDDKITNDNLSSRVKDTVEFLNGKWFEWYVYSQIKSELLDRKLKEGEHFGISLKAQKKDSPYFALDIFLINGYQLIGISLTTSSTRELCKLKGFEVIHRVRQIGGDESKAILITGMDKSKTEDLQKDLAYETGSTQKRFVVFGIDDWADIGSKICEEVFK

T2: TbrCan2 E364R (Thermoanaerobacter brockii subsp. …, UniProt E8URK0 1-437, E364R)
T2 sequence: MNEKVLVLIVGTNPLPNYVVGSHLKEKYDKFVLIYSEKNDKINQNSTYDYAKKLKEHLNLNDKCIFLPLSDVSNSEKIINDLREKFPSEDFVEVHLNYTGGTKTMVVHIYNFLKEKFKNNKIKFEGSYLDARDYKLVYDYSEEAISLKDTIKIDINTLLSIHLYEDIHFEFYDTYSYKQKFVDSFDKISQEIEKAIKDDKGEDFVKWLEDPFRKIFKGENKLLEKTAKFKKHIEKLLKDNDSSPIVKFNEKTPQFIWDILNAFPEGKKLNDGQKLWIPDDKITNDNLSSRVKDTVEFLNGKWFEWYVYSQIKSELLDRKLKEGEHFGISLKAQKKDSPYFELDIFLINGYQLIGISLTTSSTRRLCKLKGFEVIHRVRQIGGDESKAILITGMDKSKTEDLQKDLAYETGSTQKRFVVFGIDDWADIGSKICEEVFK


Assays:
TbrCan2 E341A [1] = target: T1, TbrCan2 E341A; test: crystal structure 2.0 A
TbrCan2 E341A [2] = target: T1, TbrCan2 E341A; test: EMSA
TbrCan2 E364R = target: T2, TbrCan2 E364R; test: crystal structure
TbrCan2 E341A [3] = target: T1, TbrCan2 E341A; test: crystal structure 2.4 A
TbrCan2 E341A [4] = target: T1, TbrCan2 E341A; test: crystal structure 2.3 A

Binder	binding result (TbrCan2 E341A [2])	further results
AAAAAA (ssDNA) [dA6 (dKJ42)]		binding result (TbrCan2 E341A [1]): binds
TTTTTTTGGGTTTTTTTTTTTTTTTTTTTT (ssDNA) [T7-G3-T20 DNA (dKJ72)]	no binding	
TTTTTT (ssDNA) [dT6 (dKJ46)]		binding result (TbrCan2 E364R): binds
UUUUUUUUUUUUUUU (ssRNA) [rU15]	no binding	
TTTTTTTTTTTTTTT (ssDNA) [dT15 (dKJ62)]	no binding	
TTTAAA (ssDNA) [TTTAAA (dKJ44)]		binding result (TbrCan2 E341A [3]): binds
UUUUUUUGGGUUUUUUUUUUUUUUUUUUUU (ssRNA) [U7-G3-U20 RNA (rKJ10)]	no binding	
CCCCCC (ssDNA) [dC6]		binding result (TbrCan2 E341A [4]): binds
AAAAAAAAAAAAAAA (ssRNA) [rA15]	binds	

Source: PMC10783487
